The target of series [1] is ReGal2, GH27 α-galactosidase from Rasamsonia emersonii (Rasamsonia emersonii). Put plainly: SEC; gel filtration of purified ReGal2, Superdex 200 Increase 10/300 GL, 10 mM Tris-HCl pH 8.0 plus 100 mM NaCl, calibrated with molecular weight standards; self-association, oligomeric state of the native enzyme.
Substrate in the series “purified protein”: O=[N+]([O-])c1ccc(O[C@H]2O[C@H](CO)[C@H](O)[C@H](O)[C@H]2O)cc1
Nature of the series: purified protein. Conditions: 80 °C, 20 mM HAc-NaAc buffer pH 4.8 (general assay buffer), 0.25-2.0 mM pNPGal.

This note sets out measurements from paper PMC6813122, “Characterization of a highly stable α-galactosidase from thermophilic Rasamsonia emersonii heterologously expressed in a modified Pichia pastoris expression system” (Microbial Cell Factories, 2019).

The term stoichiometry N denotes the number of molecules, sites or subunits per partner or assembly. Usually Km stands for the concentration of substrate that gives half-maximal velocity. A word on the kcat: it is the number of substrate molecules converted per active site and unit of time at saturation. A word on the kcat/Km: it is the turnover number divided by the Michaelis constant.

Consider “ReGal2, GH27 α-galactosidase from Rasamsonia emersonii (enzyme)”, for which the stoichiometry N in series [1] is 6.

B1: ReGal2 (Rasamsonia emersonii CBS 393.64) (protein)
chain: LDNGLAITPQMGWNTWNSFGCSLNETVILDAAEKLVSLGFKDLGYEYVVLDDCWSAGRNASGYLVPDPAKFPNGIDGLAEKIHALGLKIGIYSSAGTMTCARYAGSLGYEEKDAALWASWGIDYLKYDNCYNQGQEGTPKLSYDRYNAMGQALNKTGRPILYSLCNWGVDGPWNFASTIANSWRTSGDLLNTWDRDDANCPCSELEGLDCKTPGYKCSILNVINKAVYYPSKAFPGAWNDLDMLQVGNGGLTDDEAVAHMSLWAAFKSPLLMTNVLSNIDPPTLSILQNPAVLAVSQDPVGSSVNRIWRYYVDDVDANGYGEIQLFSGGLAGGDQLVLLLNAGSKDRTMNATLEDIFWEDGPGGTASQVQQSWDVYDLWANRMSNETAAAIINAANSTGSAAPAAPINMTALGGAKHVYSQVPPSDSKALMGTKVGSVQPSGTVKAFVKAHGVAMLRLRQQSQKKDEL
In the case of B1, in the series “purified protein”, the Km was determined as 190 ± 40 µM, the kcat was 623 s⁻¹ and the kcat/Km stood at 3.28e+06 M⁻¹ s⁻¹.
